Results taken from a protein production outcome set (Wang et al. 2014).

Experiment: label from the status in PepcDB records

Row | Sequence | protein production
1 | QKGWFPASHVKLLGPSSERATPAFHPVCQVIAMYDYAANNEDELSFSKGQLINVMNKDDPDWWQGEINGVTGLFPSNYVKMTTDS | not failed
2 | MQKTAFIWDLDGTLLDSYEAILSGIEETFAQFSIPYDKEKVREFIFKYSVQDLLVRVAEDRNLDVEVLNQVRAQSLAEKNAQVVLMPGAREVLAWADESGIQQFIYTHKGNNAFTILKDLGVESYFTEILTSQSGFVRKPSPEAATYLLDKYQLNSDNTYYIGDRTLDVEFAQNSGIQSINFLESTYEGNHRIQALADISRIFETK | not failed
3 | MDANEFHWLMDMLESVEVGLVVLDLDFHVQAWNGFMEHHSGITARQIRDKVLFEVFPDIPEAWLTRKVDAVAMLNTRAFTSWEQRPYLFKFRNTRPITGTEEYMFQNLTISPITAPNGEVEKVCLLVYDVTEFASSKRALERANEQLAKLSMTDRLTGLLNRGTWENLVDAEYERFRRYGQATSLVMFDIDHFKPVNDTYGHLAGDEVIRHTADVTRNNIRQSDSAGRYGGEEFGIILPETDAESARVICERIREAIEKSTVSTSAGDIQYTVSMGIAQLTETPENYMQWMQKADEALYKAKESGRNKVVVSLEHHHHHH | failed
4 | RAKAFIDAANQYSINELYLISHALLETGNGTSALANGLTYNGKTVYNMYGIGAYDSNPNYYGAKYAYEQGWFTPEAAIIGGAKFIGSSYIHNTAYNQDTLYKMRWSATATHQYATDIGWAYKQVNRMYSLYSLLDG | not failed
5 | MASFDGQGFMMVDNSWVQTKAIDVESTTDISPYLSKILEDSVWNGNRSIVFDVYWDVKSVSTKSEWRLCSVKFSTKNFCLFLRLPNPFCDNLKDLYRFFASKFVTFVGVQIQEDLALLKENHGIVIRSSLEIGKLAAKARGTPIVEFLGTRELAHKILWYDMSRLDSIQSKWDEASSNDRLEAAAIEGWLIFNVYDQLQQ | failed
6 | MGLFAKITTASDPRTARIAGILLMLLAMLAFSFADAAGKTVVAIYSVGQLLVLRALAGLLVLSPLIWRQRKAFLQLERPGLQLARTLIAACEVAVFYLATAYLPLADVITFYLASSLFVSVGAALFLGETIDRPRGIAIVVGFVGVLIALQPSTQTMSWPALIAILASVLFAGLLLLTRFLRQTPDMVLASQQFAGTLLLGLVLAPSGWITPSATDLVWFAISGAVSAVGLLCVNRSLRLAPASVVVPYQYTMIIFAAAFGWLLFGDVPSRATVAGVAIIIAAGLYLGWRERSTSRPPVGG | failed
7 | GSDSSLFETYNVELVRKDGQSLGIRIVGYVGTSHTGEASGIYVKSVIPGSAAYHNGHIQVNDKIVAVDGVNIQGFANHDVVEVLRNAGQVVHLTLVRRKTSSSTSPLEPPSDRGTV | not failed
8 | MLIPSKLHFPRRLHNAILRQRVLDTLENAMHYKLVLFRSPAGYGKTTMAAQWLSDKDATGWYSLDESDNDEYKFAKYFVQTISNATHTELSHSKALTEKRQFASLSSLFSQVFTELISFQDEAYIVLDDYHLITNDTIHLGLKFFLKHLPDNLTLVITSRSQPPLNTANLRVRDLLIEIDNQSLAFDQSETSLFFNQRLNENIDQEAITHVREHVEGWPSALQLIALHSIQNNQSLNNSAQVMAQLNHAHLWDYLAEEVFDHLDQETQQFLMRCAVFDHFNTTLLSKVTQRKDAQLLIENLNRFGLFINTNGEQGDWYKFHNLFAEFLTHQRQNHLAHEEIDLQKYAAEAWLEHDNIYQALRHAKNAKDDILIANILTQHGWHLFNNGELSLLETTISDLRPEVLFTSPRLVIIRAWLAQSQHNYLQVNDLLSEAQREMADRNIVLDRHMQGEIDALRAQVAINKNEPEAALAFAEKALEELETNKYRSRIVATSVIGEYHHVSGNLAQALALMQQTEKMAMTYGIYHQALWAILQQSEILMAQGFMQAAFDLQDNGFKLIEDQDLHQLPLHEFLLRSRAQIYWFWFRFDEAEQCTWKGLDVLSPFDETKHLRGYSMLARLAVARGELDKAERYLDKCQQLLGQSDYHIDWKANASSAQLFYWQAKNNSEAIQYWLAQAERPETRCNHFTQLQWRNIARAQFHLGDIDTAIETLQTSQTIAQQHKLITDINRNAILAAILLYENKQIDEAVEAMHLAIKQSNQTGIIGSFLMAGRNVLKPLGKLQQKGNVTELEKHRIEQLQKALSNNERSRSAHFDETFIEKVLNTPEVPELIRTSPLTHREWQVLGLIYSGFSNEQIAAEFDVAPTTIKTHIRNLYQKLNLPNRKAAIAMADELVGMMK | failed
9 | SSSKGISNALKDLVEDFERELGRMLSPFELEDLQKTVSDDKTDPDLVRSALREAVFNGKTNWNYIQAILRNWRHEGI | failed
10 | MEQMKITNLTGEQISFQLILHSGNARSCIIQSLRAYKEGKKDEADALIAKAEQDLSAAHDIHFQMIQKESGGEATAFSLLLMHAEDHLMSTLSMKELVKEMLDLFKTKNI | failed
11 | MTLTKITAGKDDPDTGFAIATYNIHSCLGTDGAFRPDRVAQAIRALDADVIGLQEVGWALRGPSGFDQFAFLERETGYTVIPGLVRHHANAHFGNAILSRHPVESVAPLDLSLPYHSPRGGIDARIRVKGRSVRLINVHLGLIPLERRIQIRRIGLRLLDGWRGPALVCGDLNHWRRTSPAMQRLHRLLPGGVTGQTYPSALPTMMFDRILATGDLHLENHQVIRTEGTRVASDHLPLMAWFRFEGADVLSEDAA | failed
12 | MTIRISGKSISIGEALRSRVSERTEEVLRKYFDGNYSGHFTLSKDGFGFRTDCALHLDSGITLEAESNAADAYVSADQALVQIEKRLRRYKSRLKDRSSRKAHAEANALAELSTPVDAASYVIEAPGDEEHHEDAYNPVIIAEATTAMKRLSVSEAVVELDLTGAPVVVFLHGSSGRVNIIYRRADGNIGWIDPPVLNGAN | failed
13 | VDQLFFSTTDAQGRIQETNNTFVELSRYTEEELRNAAHNIIRHPFMPGGVFKIMWDKLQRGETFAGYVRNLAHSGETYDVFATVTPIPGTHD | failed
14 | MKHAFDRFVQYLQKNYFSYWIVLGIDTFIALICTWVSFIGIHYITETSKEITSLFHILAISVISSILGSFLFHTYRNTIRFSQLKELWRLAGSALIKAVCIAMAIWLFLPQTGLHNSQKIVFVLFDGMLTFIAMVGFRIQLILVYELLLNMLNKKNMHILIYGIDDKSVALKVRLMNSSHYKVVGFCIYGTGDSIRRVADLPVYSFKDEECFNKLIHKKCIGGILFARYENTREEEDRLLQYCKRSGLKTLIAPSISEADENGSFHQWVRPIKIEDLLGRSEIHINMEEVMTEFCGKVVLVTGAAGSIGSELCRQLAQMNIKKLIMFDSAESPLHNVRLEFEKNYPDLDFVPVIGDVRVKERLRMVFETYQPQIIFHAAAYKHVPLMEENPCEAVLVNVVGSRQVADMAVEYGAEKMIMVSTDKAVNPTNVMGCSKRLAEIYVQSLGCAIREGKVKGHTKFITTRFGNVLGSNGSVIPRFKEQIENGGPVTVTHPDIIRFFMTIPEACRLVMEAATMGEGNEIFVFEMGKAVKIVDLATRMIELAGYRPGEDIEIEFTGLRPGEKLYEEVLSDKENTIPTENKKIMIAKVRHYEYTDILDTYTEFEKLSRSVQIMDTVKLMKRVVPEFKSKNSPRFEVLDR | failed
15 | MATANEHLVAWLRDAHAMEEQAITMLTSQSSRLENYPELKTRIDRHLQETKDQAAMLERCLERLDGGTSSIKDISGKIVAFGQGLSGLFVSDEVVKGTLASYTFEHMEIASYRILIAAAEQAGDQETKRVCESILQQEIAMAEWLAQNAGEITRKFLERDQRDVTAKH | not failed
16 | MLEEYRKHVAERAAEGIAPKPLDANQMAALVELLKNPPAGEEEFLLDLLTNRVPPGVDEAAYVKAGFLAAIAKGEAKSPLLTPEKAIELLGTMQGGYNIHPLIDALDDAKLAPIAAKALSHTLLMFDNFYDVEEKAKAGNEYAKQVMQSWADAEWFLNRPALAEKLTVTVFKVTGETNTDDLSPAPDAWSRPDIPLHALAMLKNAREGIEPDQPGVVGPIKQIEALQQKGFPLAYVGDVVGTGSSRKSATNSVLWFMGDDIPHVPNKRGGGLCLGGKIAPIFFNTMEDAGALPIEVDVSNLNMGDVIDVYPYKGEVRNHETGELLATFELKTDVLIDEVRAGGRIPLIIGRGLTTKAREALGLPHSDVFRQAKDVAESDRGFSLAQKMVGRACGVKGIRPGAYCEPKMTSVGSQDTTGPMTRDELKDLACLGFSADLVMQSFCHTAAYPKPVDVNTHHTLPDFIMNRGGVSLRPGDGVIHSWLNRMLLPDTVGTGGDSHTRFPIGISFPAGSGLVAFAAATGVMPLDMPESVLVRFKGKMQPGITLRDLVHAIPLYAIKQGLLTVEKKGKKNIFSGRILEIEGLPDLKVEQAFELTDASAERSAAGCTIKLNKEPIIEYLNSNIVLLKWMIAEGYGDRRTLERRIQGMEKWLANPELLEADADAEYAAVIDIDLADIKEPILCAPNDPDDARPLSAVQGEKIDEVFIGSCMTNIGHFRAAGKLLDAHKGQLPTRLWVAPPTRMDAAQLTEEGYYSVFGKSGARIEIPGCSLCMGNQARVADGATVVSTSTRNFPNRLGTGANVFLASAELAAVAALIGKLPTPEEYQTYVAQVDKTAVDTYRYLNFNQLSQYTEKADGVIFQTAV | not failed
17 | MGHHHHHHSHVRSPQNQYPAELMRRFELYFQGPSSNKPRVIREVRADSVGKLVTVRGIVTRVSEVKPKMVVATYTCDQCGAETYQPIQSPTFMPLIMCPSQECQTNRSGGRLYLQTRGSRFIKFQEMKMQEHSDQVPVGNIPRSITVLVEGENTRIAQPGDHVSVTGIFLPILRTGFRQVVQGLLSETYLEAHRIVK | failed
18 | MWDETVAGPKPEHGLGRLRNKITTQPLDIKGVGEGSSSKTVAAVAGSPGTPTTPGSARKENVWRSVFHPGSNIATRGMGTNLFDKPSHPNSPTVYDWLYSDDTRSKHR | failed
19 | MYLVCGEALFDVFSLESAARSNELGFTAIAGGSPFNVAVGLRRLGVEAALFGGLSSDYLGARLRRVLEEEGVDCGFLVPSDAPTTLAMVGLDASGSAQYQFRGEGCADRQVRLEHLPTLDGRIRGLHVGSYTLVVTPVADTLLALVRRESGRRLVSLDPNVRLDPQPDIDLWRRRVEAFASHAHLIKASEEDLALLYPGRDPGEVARGWLNPRCRLVFVTHGGAGASVHCTHGSWSRPADTALPLRDTVGAGDTFQAATLAYLRRLDADSPAGLAALSREAIDAMLAFAIRAAAVTCSRVGPDLPFAHEL | failed
20 | MPTIKDYYLPKRPTLLFSLHPEPTQAIINGTKILEYRRRFFARPFQAFVYTTGDNGGIQLFLRCDQGLQLVPEQLALVGALLQHDAPTTTAAYFEGAKAGLALPITAFTTLPNIPLAQLRRQFENFVTPRSYVFLDQPDRQAQLDWLLTQPCESLTILDWRKRYAALATLLQKLEHHHHHH | not failed
21 | MPIFPKPKVTVILANLGTPDVPTASAVRAFLKQFLSDQRVIEIPKLLWKIILYSFVLPFRPKRVAHAYASVWGQDSPMREILFAQTDALKRQLISHYPQLDLNIVPAMTYGNPGVQHILKDLAASPQEHVILLPLFPQYSATSTAPLYDAFANWIPKQRHLPGLTIIKDYYRHPVFIQALVSSVQRFQQQHGKPQKLLMSFHGIPQPYADKGDPYADRCRETARLVAKQLGLTPDDWAISFQSRFGKQEWVKPYTDELLTTWAANGIKSVQILSPAFSADCLETLEELEIQNAELFLEAGGTSYQYIPALNTSVEHLELLRQLLQAHLDALNYSLAYSAH | failed
